Measurements reported in patent publication US20240279288A1, “APPLICATION OF PLANT JAZ PROTEINS AND DERIVED POLYPEPTIDES IN PREVENTION AND TREATMENT OF HUMAN AND ANIMAL TUMORS” (ANYANG INSTITUTE OF SINO-COTTON INDUSTRY INNOVATION, priority 2021, published 2024).

B1: GhJAZ1 after deletion of NT domain: GhJAZ1 mutant with NT domain deleted, protein sequence SEQ ID No. 83 (protein)
chain: MSSCSESTAMKPARSPEANGTPVVPPPTMNLFPLNDKSDDVCGRNGGNPKNLTSMDLFPQQAGLASKDDSPNKLEPQTAPMTIFYGGQVIVFNDFPANKAKEIMLLASNSSSQSNNSFNPIPFTSSIARSPIESSIGVPPTSKPVHPAQRAVPGDLPIARRASLHRFLEKRKDRITAKAPYQINNSAAAPSLSGDNKSWLGLAAQSP
B2: GhJAZ1: cotton JAZ1 protein, gene number Gh_A05G0260, sequence SEQ ID No. 4; prokaryotically expressed with His tag, about 30 KD (protein)
chain: MSSCSESTAMKPARSPEKPSFAQTCNLLSQYLKEKGSFGDLSLGMTCNVEANGTPVVPPPTMNLFPLNDKSDDVCGRNGGNPKNLTSMDLFPQQAGLASKDDSPNKLEPQTAPMTIFYGGQVIVFNDFPANKAKEIMLLASNSSSQSNNSFNPIPFTSSIARSPIESSIGVPPTSKPVHPAQRAVPGDLPIARRASLHRFLEKRKDRITAKAPYQINNSAAAPSLSGDNKSWLGLAAQSP
modifications: His tag
notes: prokaryotically expressed with His tag, about 30 KD

Legend:
Assay type in all cases: binding, cotton
[1] = system: GhMYC2; assay: Yeast two hybrid with GhMYC2
Procedure: (§1) The study on Arabidopsis had shown that the inhibition of JAZ protein on JA signaling was mainly achieved by inhibiting the transcription factor function of MYC, which had been experimentally verified by us in cotton. Based on the phylogenetic tree of Arabidopsis and cotton JAZs, we screened 6 cotton JAZs (GhJAZ1, GhJAZ7, GhJAZ9, GhJAZ10, GhJAZ11 and GhJAZ31), which were analyzed with GhMYC2, GhNINJA, GhTPL, GhHDA6, and GhCOI1 for yeast two hybrid. The amino acid sequence of GhJAZ1 was set forth in SEQ ID No. 4, and the corresponding encoding gene sequence was set forth in SEQ ID No. 39; the amino acid sequence of GhJAZ7 was set forth in SEQ ID No. 7, and the corresponding encoding gene sequence was set forth in SEQ ID No. 42; the amino acid sequence of GhJAZ9 was set forth in SEQ ID No. 2, and the corresponding encoding gene sequence was set forth in SEQ ID No. 37; the amino acid sequence of GhJAZ10 was set forth in SEQ ID No. 3, and the corresponding encoding gene sequence was set forth in SEQ ID No. 38; the amino acid sequence of GhJAZ11 was set forth in SEQ ID No. 5, and the corresponding encoding gene sequence was set forth in SEQ ID No. 40; and the amino acid sequence of GhJAZ31 was set forth in SEQ ID No. 9, and the corresponding encoding gene sequence was set forth in SEQ ID No. 44. The amino acid sequence of GhMYC2 was set forth in SEQ ID No. 71, and the corresponding encoding gene sequence was set forth in SEQ ID No. 72; the amino acid sequence of GhNINJA was set forth in SEQ ID No. 73, and the corresponding encoding gene sequence was set forth in SEQ ID No. 74; the amino acid sequence of GhTPL was set forth in SEQ ID No. 75, and the corresponding encoding gene sequence was set forth in SEQ ID No. 76; the amino acid sequence of GhHDA6 was set forth in SEQ ID No. 77, and the corresponding encoding gene sequence was set forth in SEQ ID No. 78; and the amino acid sequence of GhCOI1 was set forth in SEQ ID No. 79, and the corresponding encoding gene sequence was set forth in SEQ ID No. 80. […]

[2] = system: GhCOI1; assay: Yeast two hybrid with GhCOI1; conditions: in the presence of JA-Ile
Procedure: as §1

[3] = system: GhHDA6; assay: Yeast two hybrid with GhHDA6
Procedure: as §1, with “44.” for “44. The amino acid sequence of GhMYC2 was set forth in SEQ ID No. 71, and the corresponding encoding gene sequence was set forth in SEQ ID No. 72; the amino acid sequence of GhNINJA was set forth in SEQ ID No. 73, and the corresponding encoding gene sequence was set forth in SEQ ID No. 74; the amino acid sequence of GhTPL was set forth in SEQ ID No. 75, and the corresponding encoding gene sequence was set forth in SEQ ID No. 76; the amino acid sequence of GhHDA6 was set forth in SEQ ID No. 77, and the corresponding encoding gene sequence was set forth in SEQ ID No. 78; and the amino acid sequence of GhCOI1 was set forth in SEQ ID No. 79, and the corresponding encoding gene sequence was set forth in SEQ ID No. 80.”

Sequence of GhMYC2 (as listed by the source): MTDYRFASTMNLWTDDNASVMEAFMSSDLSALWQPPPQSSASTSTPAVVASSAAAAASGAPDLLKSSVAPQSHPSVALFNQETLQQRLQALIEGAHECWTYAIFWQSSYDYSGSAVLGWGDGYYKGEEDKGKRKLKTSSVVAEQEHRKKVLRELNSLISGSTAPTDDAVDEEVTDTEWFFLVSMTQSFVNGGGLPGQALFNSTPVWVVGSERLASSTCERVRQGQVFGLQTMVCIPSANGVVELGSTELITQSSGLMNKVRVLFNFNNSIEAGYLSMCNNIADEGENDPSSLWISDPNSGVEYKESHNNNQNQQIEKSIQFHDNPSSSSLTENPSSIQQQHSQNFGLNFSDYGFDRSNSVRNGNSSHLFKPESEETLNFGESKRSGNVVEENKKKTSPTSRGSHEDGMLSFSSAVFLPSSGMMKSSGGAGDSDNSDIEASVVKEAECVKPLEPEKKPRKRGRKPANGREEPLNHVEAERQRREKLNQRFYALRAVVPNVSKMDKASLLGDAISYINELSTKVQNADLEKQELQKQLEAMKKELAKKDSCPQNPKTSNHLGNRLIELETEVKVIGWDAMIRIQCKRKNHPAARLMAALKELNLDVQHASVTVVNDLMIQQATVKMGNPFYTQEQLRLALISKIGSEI
Sequence of GhHDA6 (as listed by the source): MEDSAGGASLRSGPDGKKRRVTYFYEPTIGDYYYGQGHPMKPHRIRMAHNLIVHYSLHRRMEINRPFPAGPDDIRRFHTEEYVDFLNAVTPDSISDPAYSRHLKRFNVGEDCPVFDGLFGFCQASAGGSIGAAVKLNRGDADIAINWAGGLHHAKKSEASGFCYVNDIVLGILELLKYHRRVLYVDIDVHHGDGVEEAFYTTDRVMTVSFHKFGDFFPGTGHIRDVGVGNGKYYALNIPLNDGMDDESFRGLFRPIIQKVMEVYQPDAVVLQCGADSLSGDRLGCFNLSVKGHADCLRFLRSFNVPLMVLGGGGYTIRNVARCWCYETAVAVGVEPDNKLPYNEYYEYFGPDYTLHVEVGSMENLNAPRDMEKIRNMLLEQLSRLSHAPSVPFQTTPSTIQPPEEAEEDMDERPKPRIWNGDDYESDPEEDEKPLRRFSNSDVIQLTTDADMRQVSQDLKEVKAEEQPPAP
Sequence of GhCOI1 (as listed by the source): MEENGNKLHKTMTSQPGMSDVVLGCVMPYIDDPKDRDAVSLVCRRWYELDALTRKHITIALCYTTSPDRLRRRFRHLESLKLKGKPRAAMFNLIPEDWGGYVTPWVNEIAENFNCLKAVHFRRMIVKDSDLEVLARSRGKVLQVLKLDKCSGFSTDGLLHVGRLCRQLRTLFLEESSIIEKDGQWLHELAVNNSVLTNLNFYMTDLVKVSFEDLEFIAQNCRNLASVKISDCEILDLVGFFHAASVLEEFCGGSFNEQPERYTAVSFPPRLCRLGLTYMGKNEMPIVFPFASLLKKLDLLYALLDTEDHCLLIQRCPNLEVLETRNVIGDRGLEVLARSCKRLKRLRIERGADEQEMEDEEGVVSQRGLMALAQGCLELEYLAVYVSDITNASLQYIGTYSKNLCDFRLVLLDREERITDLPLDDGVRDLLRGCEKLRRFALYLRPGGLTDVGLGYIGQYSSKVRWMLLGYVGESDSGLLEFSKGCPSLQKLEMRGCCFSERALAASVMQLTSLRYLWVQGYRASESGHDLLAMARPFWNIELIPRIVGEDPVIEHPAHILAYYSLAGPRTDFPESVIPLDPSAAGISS

| Molecule | interaction with GhMYC2 [1] | interaction with GhCOI1 [2] | interaction with GhHDA6 [3] |
| --- | --- | --- | --- |
| B1 | significantly weakened | significantly weakened | significantly weakened |
| B2 | strong | interacted | interacted |
